# B1: HDP1 DNA-binding domain (HDP1 aa2991-3078) (domain or fragment, P. falciparum, UniProt A0A2I0C2C6 2991-3078, looked up)
# chain: SEVQVSNINTPSSYNISARRRRRIGNNGPPSAEELNRLLNIQHLTIPEIATIYGVHRTTIARWCNIRNITSNSMNNSPGKRRKNEDNK
# Target: the molecule itself
# Test: ITC
protein,measurement,value
B1,binding result,binds

# — publication PMC8852293 (Nature microbiology, 2020)
